# Measurements taken from patent US9115383B2, “Fluorescence assay for ghrelin O-acyltransferase activity” (Syracuse University, priority 2012, dated 2015).
# No end group written: not given here. *: point of attachment. acrylodan = acrylodan label (AcDan) on Cys, CN(C)c1ccc2cc(C(=O)CC*)ccc2c1; Dansyl = CN(C)c1cccc2c(S(=O)(=O)*)cccc12
# Biological target: T1, hGOAT (Homo sapiens, UniProt Q96T53)
# T1 construct: the gene for hGOAT was cloned with a C-terminal His10 tag into the pFastBacDual vector; His10 (C); made in house; host or cells: Sf9 insect cells, baculovirus (pFastBacDual); used as membrane fraction
# T1 sequence (Q96T53 1-435): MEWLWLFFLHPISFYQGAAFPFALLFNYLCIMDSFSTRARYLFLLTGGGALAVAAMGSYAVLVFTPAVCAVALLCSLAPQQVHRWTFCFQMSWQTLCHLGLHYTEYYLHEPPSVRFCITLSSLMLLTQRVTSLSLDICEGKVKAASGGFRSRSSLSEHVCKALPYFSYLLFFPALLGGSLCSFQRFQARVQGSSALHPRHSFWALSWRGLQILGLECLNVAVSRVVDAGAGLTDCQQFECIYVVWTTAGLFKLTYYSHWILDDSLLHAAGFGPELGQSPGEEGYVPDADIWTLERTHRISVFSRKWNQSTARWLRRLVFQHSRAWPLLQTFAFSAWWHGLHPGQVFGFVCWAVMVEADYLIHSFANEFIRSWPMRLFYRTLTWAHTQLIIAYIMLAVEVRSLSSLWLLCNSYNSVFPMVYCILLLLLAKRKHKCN
# Test: hGOAT-catalysed octanoylation of fluorescent ghrelin peptide substrates, RP-HPLC with fluorescence detection
# Format: biochemical
# Settings: for modification (octanoylation) by hGOAT: RP-HPLC with fluorescence detection, hGOAT-His10 membranes vs mock membranes; for Active with hGOAT?: peptide tested as substrate, hGOAT-His10 membranes in parallel with mock membranes; for activity with hGOAT (substrate selectivity at N-terminus, G1 and S2): ghrelin mimic peptide mutants, FIG. 5
# Experimental: FIG. 3 is a schematic of ghrelin peptide acylation reactions with the fluorescent GSSFLCAcDan substrate, where (A) is a reaction with control/mock membrane fraction; (B) is a time course for GSSFLCAcDan acylation using GOAT membrane fraction, and where the assays were incubated for 1-10 minutes at 37° C. and all reactions were analyzed using reverse-phase HPLC under the following assay conditions: 10 μM peptide, 50 μg membrane protein, 500 μM octanoyl coenzyme A, 100 μM palmitoyl coenzyme A, 50 mM HEPES buffer pH 7.0.
# In order to test the activity of peptide substrates, the gene for hGOAT was cloned with a C-terminal His10 tag into the pFastBacDual vector and expressed using standard baculoviral procedures.
# With the peptide substrates, the addition of the hydrophobic octanoyl group upon serine acylation at position 3 leads to an increase in retention time in reverse-phase (RP) HPLC. The panel of fluorescent ghrelin peptide substrates was assayed for activity with hGOAT using HPLC coupled with fluorescence detection of the fluorescently labeled peptides. All reactions with hGOAT-His 10 membranes were performed in parallel with mock membranes to account for nonspecific peptide modifications.
# An assay for human ghrelin O-acyltransferase activity was performed using hGOAT expressed from insect (Sf9) cells using standard baculoviral methods and a fluorescent 6-mer peptide synthesized by a single step reaction followed by high performance liquid chromatography (HPLC) purification. The assay was performed at room temperature using hGOAT membrane protein, octanoyl-CoA, a fluorescent ghrelin peptide, a buffer, and a detergent. Activity may be measure by detecting the presence of any octanoylation of the ghrelin peptide. For example, the presence of octanoylated ghrelin peptide may be confirmed by HPLC or by using a fluorescent system whose fluorescence will increase as a result of octanoylation of the ghrelin peptide.
Substance,modification (octanoylation) by hGOAT,Active with hGOAT?,"activity with hGOAT (substrate selectivity at N-terminus, G1 and S2)"
"GCAcDanSFLS (SEQ. ID No. 3) (GC(acrylodan)SFLS; ends and bridges not checked) [AcDan-2, ghrelin mimic peptide with acrylodan on cysteine at position 2]",not modified by hGOAT,No,
[Ac]GSSFLC (SEQ. ID No. 1),,,low activity
"GSSFCAcDanS (SEQ. ID No. 4) (GSSFC(acrylodan)S; ends and bridges not checked) [AcDan-5, ghrelin mimic peptide with acrylodan on cysteine at position 5]",yielded the octanoylated peptide with increased retention time,Yes,
GSSFLCAcDan (SEQ. ID No. 5) [AcDan-6],yielded the octanoylated peptide with increased retention time,Yes,
"Dansyl-GSSFLS (SEQ. ID No. 2) (ends and bridges not checked) [Substrate 1-Dansyl, ghrelin mimic peptide with N-terminal dansyl fluorophore]",not modified by hGOAT,No,
[Ac]SSFLC (SEQ. ID No. 6) (Ac-SSFLC; not fully specified; ends and bridges not checked) [N-terminally acetylated ghrelin mimic peptide lacking G1],,,no activity
